In patent US6890900B2, “Methods for treating or preventing diseases of the oral cavity” (Campina B.V., priority 2001, dated 2005):

System: Streptococcus pyogenes ATCC #19615
Assay: LF/GMP assay, viable plate count (pour plate) of broth culture
Assay type: cell-based
Set-up: key to MIBC: NCF: No Effective Concentration Found
Details: 35° C.; for Colony Counts: viable plate count
Method: Bacterial strains used in this study were Pseudomonas aeruginosa ATCC #27853, Streptococcus mutans ATCC #33535, Streptococcus pyogenes ATCC #19615, and Actinobacillus haemophilus ATCC #43717 and an oral swab from a healthy adult. Bacteria were grown on blood/BHT media (Brain Heart Infusion Agar with protease peptone, sodium chloride, glucose, di-sodium phosphate, and agar, Oxoid, Hampshire England, Sheep's Blood) in the presence of 5% CO2 at 35° C. […] The 0.5 McFarland value is approximately equivalent to 1.0×10^8 organisms. One ml of the appropriate bacterial dilution was taken using a sterile pipette and introduced into 8 ml of sterilized BHI broth. […] By pipette, 9 ml of broth was placed into medium test tubes as means of a control and 8 ml test tubes were prepared for the concentration tests). […] This solution was filtered through a 0.45 μm filter. […] Example for calculating 2,500 ppm dilution (1,000 ppm=0.1%): [formula] [formula] [formula] To study the kinetics of LF/GMP binding, each strain of bacteria was taken separately with a sterile pipette and placed into an 8 ml BHI broth test tube, vortexed, and incubated in the presence of 1 ml of LF or GMP for 18-24 hours at 35° C. with 5% CO2. In the combination procedure, 0.5 ml of both LF and […] were taken as 1 ml inoculations. This technique was used to determine the density of living (viable) cells in inoculated broth cultures. It involves plating a bacterial sample and counting the resulting colonies after incubation. A serial dilution of the original broth was taken prior to plating. The serial dilution is necessary to reduce the density of organisms in order to create countable plates. Only plates containing between 25 and 250 colonies are considered countable. Cell densities are traditionally recorded as CFU (colony forming unit)/ml. […] Formula: [formula] The assays required the use of a pour plate technique. The pour plate technique adds a step to the conventional serial dilution. The 1 ml of dilution is added to a warm emulsion of dilute nutrient (BHI) agar to produce an agar overlay in the petri plates. After incubation, the bacterial growth covers the entire plate but individual cellular movement has been restricted by the soft agar overlay. Each colony formed is assumed to have originated from a single CFU. The plates were gently mixed, inverted, and incubated for 18-24 hour at 35° C. Using a control (one broth tube inoculated with a bacterial strain, but no LF), the effectiveness of LF was examined. Each test tube containing a specified amount of LF (50, 100, 250, 500, 1,000 ppm and 3000 ppm) was diluted and plates were poured. After incubating the plates for 24 hours at 35° C. with 5% CO2 (the normal conditions of an oral cavity), the bacterial recovery count was taken and the results were compared to the control. A. haemophilus, S. mutans, S. pyrogenes and an oral culture were tested at 35° C. Pseudomonas aeruginosa was tested at both room temperature and 35° C. with 5% CO2. This was done because P. aeruginosa is not strictly an oral pathogen. It is commonly found in the environment in various conditions. It can be found in the environment and oral intake can cause inflammation in the oral cavity. Most normal oral bacteria are only found in the mouth and are not taken in from outside factors. Therefore, P. aeruginosa is a threat in both temperature settings. Table 1 depicts the minimum inhibitor concentration (MBEC) for each of the bacterial strains at 35° C. S. pyogenes and the oral culture were not effected by LF at any tested concentration. […] (see Table 2).

B1: LF: Bovine lactoferrin, iron-binding glycoprotein purified from milk, provided by DMV International (protein, UniProt P24627 20-708, looked up)
Lactotransferrin: APRKNVRWCTISQPEWFKCRRWQWRMKKLGAPSITCVRRAFALECIRAIAEKKADAVTLDGGMVFEAGRDPYKLRPVAAEIYGTKESPQTHYYAVAVVKKGSNFQLDQLQGRKSCHTGLGRSAGWIIPMGILRPYLSWTESLEPLQGAVAKFFSASCVPCIDRQAYPNLCQLCKGEGENQCACSSREPYFGYSGAFKCLQDGAGDVAFVKETTVFENLPEKADRDQYELLCLNNSRAPVDAFKECHLAQVPSHAVVARSVDGKEDLIWKLLSKAQEKFGKNKSRSFQLFGSPPGQRDLLFKDSALGFLRIPSKVDSALYLGSRYLTTLKNLRETAEEVKARYTRVVWCAVGPEEQKKCQQWSQQSGQNVTCATASTTDDCIVLVLKGEADALNLDGGYIYTAGKCGLVPVLAENRKSSKHSSLDCVLRPTEGYLAVAVVKKANEGLTWNSLKDKKSCHTAVDRTAGWNIPMGLIVNQTGSCAFDEFFSQSCAPGADPKSRLCALCAGDDQGLDKCVPNSKEKYYGYTGAFRCLAEDVGDVAFVKNDTVWENTNGESTADWAKNLNREDFRLLCLDGTRKPVTEAQSCHLAVAPNHAVVSRSDRAAHVKQVLLHQQALFGKNGKNCPDKFCLFKSETKNLLFNDNTECLAKLGGRPTYEEYLGTEYVTAIANLKKCSTSPLLEACAFLTR
50 ppm, 24 h
  Colony Counts: 5.8 × 10^7
100 ppm, 24 h
  Colony Counts: 1.5 × 10^7
500 ppm, 24 h
  Colony Counts: 7.8 × 10^7
3,000 ppm, 24 h
  Colony Counts: 1.7 × 10^8
Lactoferrin/GMP 250/0 ppm (LF alone)
  Total Log Reduction: 0 log
Lactoferrin/GMP 3,000/0 ppm (LF alone)
  Total Log Reduction: 0 log
At the MIBC, vs control
  # Log Reductions: 0 log
Single agent, any tested concentration
  effect on growth (in words): not effected
Single agent, 24 h, 5% CO2
  MIBC: NCF
